Measurements published in IntAct's records for PubMed 11980910.

B1: Dual specificity mitogen-activated protein kinase kinase 3 (Homo sapiens), P46734 (parent)
chain: MESPASSQPASMPQSKGKSKRKKDLRISCMSKPPAPNPTPPRNLDSRTFITIGDRNFEVEADDLVTISELGRGAYGVVEKVRHAQSGTIMAVKRIRATVNSQEQKRLLMDLDINMRTVDCFYTVTFYGALFREGDVWICMELMDTSLDKFYRKVLDKNMTIPEDILGEIAVSIVRALEHLHSKLSVIHRDVKPSNVLINKEGHVKMCDFGISGYLVDSVAKTMDAGCKPYMAPERINPELNQKGYNVKSDVWSLGITMIEMAILRFPYESWGTPFQQLKQVVEEPSPQLPADRFSPEFVDFTAQCLRKNPAERMSYLELMEHPFFTLHKTKKTDIAAFVKEILGEDS

Variants of: B1
Conditions: with dyr1b_human DYRK1B

Variant	effect of a mutation on the interaction
T222E	increasing interaction
S218E	increasing interaction
